B1: M0418 scFv-Fcε fusion protein [human] / Bet v 1.0101 peptide I56 to D69 [modified: biotin at the N-terminus, before the additional glycine; biotin at the N-terminus, before the additional glycine] [birch] (parent complex)
chain 1: QVQLVQSGAEVKKPGESLKISCKGSEYSFPNYWIAWVRQMPGKGLEWMGMIYPGDSDTRYSPSFQGQVNISADKSSRTAFLEWSSLKASDSATYFCARLGGQLWNSYYYYYYMDVWGKGTTVTVSSGGGGSGGGGSGGGGSSYELTQPPSASGTPGQRVTISCSGSSSNIGGNTVNWYQQVPGTAPRLLIYKNNQRPSGVPDRFSGSKSGTSASLAISGLRSEDEADYYCEAWDGGLRGGVFGGGTKLTVLGDYKDDDDKAAA
chain 2: GISFPEGFPFKYVKDG

Variants of: B1
Assay: ELISA; parent: 3.4; read off a plot

| response | Variant |
| --- | --- |
| ~0.2 Absorbance (450 nm) | chain 2 GISFPEGLPFKYVKDG |
| ~0.22 Absorbance (450 nm) | chain 2 GISFPEGSPFKYVKDG |
| ~2.8 Absorbance (450 nm) | chain 2 GISFPEGIPFKYVKDG |
| ~3.4 Absorbance (450 nm) | chain 2 GISFPEGFPFKYVKEG |
| ~3.4 Absorbance (450 nm) | chain 2 GISFPKGFPFKYVKDG |
| ~0.17 Absorbance (450 nm) | chain 2 GISFSEGFPFKYVKDG |
| ~0.22 Absorbance (450 nm) | chain 2 GISFPEGFPFRYVKDG |
| ~2 Absorbance (450 nm) | chain 2 GISFPEGFPFEYVKDG |
| ~3.4 Absorbance (450 nm) | chain 2 GISFPEGFPVKYVKDG |
| ~3.4 Absorbance (450 nm) | chain 2 GITFPEGFPFKYVKDG |
| ~3.4 Absorbance (450 nm) | chain 2 GINFPEGFPFKYVKDG |

Source: article PMC4215112 (2014)
